The results in this text go back to patent US20250333487A1 (CYTOMX THERAPEUTICS, published 2025).

The target of assay [1] is T1, biotinylated BC2 tag peptide QGQSGQPDRKAAVSHWQ
T1 construct: Synthesized at ELIM Biopharmaceuticals; loaded on SSA biosensor tips at 100 nM; also called free BC2T peptide; the peptide
T1 peptide: Biotin-QGQSGQPDRKAAVSHWQ
In words: BLI (ForteBio Octet), biotinylated peptide on SSA biosensor tips. The method, then: Intact ProC653 and ProC654 show no binding to the biotinylated BC2 tag peptide, but binding was recovered upon activation with either MMP14 or MMP9, respectively.
(§1) Binding of the unmasked nanobody and single-anchored BC2T-Nb to free BC2T peptide was assessed by BLI using the ForteBio Octet device. While BLI is generally used to calculate association and dissociation kinetics of binding interactions, it was used herein to detect binding Peptide corresponding to the following sequence: […] (SEQ ID NO: 567) was synthesized at ELIM Biopharmaceuticals with a biotin at the N-terminus. The peptide was loaded on SSA biosensor tips (Pall/ForteBio Cat #18-5117) at 100 nM in Binding Buffer (BB: 1×PBS, pH 7.2, 5% glycerol, 0.1% Tween-20, 2% BSA) for 10 minutes. Baseline incubation in BB for 1 min before and after this capture step were used to confirm protein capture. The loaded tips were then incubated in 100 nM Nb in BB for 6 minutes followed by incubation in BB for 6 minutes. Changes in interference distance (nanometers) at the sensor tip are plotted against time to follow the binding/dissociation of soluble proteins from the immobilized ligand on the tip (FIG. 7).

In assay [2] the target is T1, biotinylated BC2 tag peptide …. In words: BLI (ForteBio Octet), biotinylated peptide on SSA biosensor tips, 100 nM Nb. The method, then:
as §1

Where no end group is shown, it is not given here. The star is where a group is joined. Biotin = O=C1N[C@H]2[C@H](CS[C@H]2CCCCC(=O)*)N1

B1: ProC653 (PP077), single-anchored BC2T-Nb: BC2 tag-1490DNI-Nanobody, intact (VHH)
chain: QGQSGQPDRKAAVSHWQQGGGSSGGSISSGLLSGRSDNIGGGSQVQLVESGGGLVQPGGSLTLSCTASGFTLDHYDIGWFRQAPGKEREGVSCINNSDDDTYYADSVKGRFTIFMNNAKDTVYLQMNSLKPEDTAIYYCAEARGCKRGRYEYDFWGQGTQVTVSSGGSHHHHHHHHHH
notes: Monomer, uncleaved (masked) form; also called single-domain antibody with MM attached with a CM 1490DNI
For B1, the binding result in assay [1] is reported as “no binding (tested: 100 nM)”.

B2: ProC649 (PP073), single-domain antibody (nanobody) with no MM attached, with His tag (VHH)
VHH: QVQLVESGGGLVQPGGSLTLSCTASGFTLDHYDIGWFRQAPGKEREGVSCINNSDDDTYYADSVKGRFTIFMNNAKDTVYLQMNSLKPEDTAIYYCAEARGCKRGRYEYDFWGQGTQVTVSS
notes: Monomer; also called unmasked nanobody; unmasked control
As to B2, the binding result in assay [2] is given as “binds”.

B3: ProC654 (PP078), single-anchored BC2T-Nb: BC2 tag-PLGLAG-Nanobody, intact (VHH)
chain: QGQSGQPDRKAAVSHWQQGGGSSGGSPLGLAGGGGSQVQLVESGGGLVQPGGSLTLSCTASGFTLDHYDIGWFRQAPGKEREGVSCINNSDDDTYYADSVKGRFTIFMNNAKDTVYLQMNSLKPEDTAIYYCAEARGCKRGRYEYDFWGQGTQVTVSSGGSHHHHHHHHHH
notes: Monomer, uncleaved (masked) form; also called single-domain antibody with MM attached with a CM PLGLAG
Take B3: the binding result in assay [1] is given as “no binding (tested: 100 nM)”.
